In paper PMC9704708 (Proceedings of the National Academy of Sciences of the …, 2022):
Blank lines part the entries; values can stand above or below the binder they belong to.

Experiments:
[1] = biological target: cytochrome c endogenous in human cells (HeLa, IMR-90) (Homo sapiens, UniProt P99999); test: immunostaining of cells or tissue
[2] = biological target: cytochrome c endogenous in Vero cells (Chlorocebus (African green monkey), …, UniProt G4XXN2); test: immunostaining of cells or tissue
[3] = biological target: T1, cytochrome c endogenous in mouse melanoma B16-F1 cells (Mus musculus, UniProt P62897); test: immunostaining of cells or tissue
T1 sequence (P62897 whole entry): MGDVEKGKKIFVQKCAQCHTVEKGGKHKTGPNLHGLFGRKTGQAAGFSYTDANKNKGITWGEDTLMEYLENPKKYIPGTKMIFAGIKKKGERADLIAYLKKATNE

[4] = biological target: cytochrome c endogenous in bovine aortic endothelial cells (Bos taurus, UniProt P62894); test: immunostaining of cells or tissue
Sequence of cytochrome c endogenous in bovine aortic endothelial cells (P62894 whole entry): as the sequence (P62897 whole entry) above, with A45P, D63E, A93E counted along it

[5] = biological target: 1–65 CNBr-cleaved peptide of cytochrome c (Equus caballus (assumed), UniProt P00004); test: ELISA
Sequence of 1–65 CNBr-cleaved peptide of cytochrome c (P00004 2-66): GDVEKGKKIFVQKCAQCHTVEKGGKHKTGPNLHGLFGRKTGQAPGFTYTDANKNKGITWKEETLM

[6] = biological target: T1, cytochrome c endogenous in mouse …; test: flow cytometry on cells

Sequence of cytochrome c endogenous in human cells (HeLa, IMR-90) (P99999 whole entry): as the sequence (P62897 whole entry) above, with V12I, Q13M, A16S, A45P, F47Y, D51A, T59I, A84V, G90E counted along it

- binding result [1]: binds
- binding result [2]: binds
- binding result [3]: binds
- binding result [4]: binds
B1: monoclonal antibody 1D3 (original, hybridoma-derived) (antibody, V domains shown)
VH: QVQLQQPGAELVKPGASVKMSCKASGYTFTSNNMHWVKQTPGQGLEWIGGLYPGNGDTSYNQKFKGKATLTADKSSSTAYMQLSSLTSGDSAVYYCARGIRDFFAMDYWGQGTSVTVSS
VL: DIQMTQSPASQSASLGESVTITCLASQTIGTWLAWYQQKPGKSPQLLIYAATSLADGVPSRFSGSGSGTKFSFKISSLQAEDFVSYYCQQLYSTPLTFGAGTKLELK

- binding result [2]: binds
- binding result [5]: binds
- binding result [6]: binds
B2: recombinant monoclonal antibody R1D3 (antibody, V domains shown)
VH: B1 VH
VL: B1 VL
